In one assay the test system is NCI-H292 cells. Kind of assay: Immunoassay of MUC5AC protein in NCI-H292 cells (Example 2). In kind it is cell-based, human. The following applies: 1 h incubation, protein at 24 h; IL-8 10^-8 M, fMLP 10^-8 M, TNFα 20 ng/ml.
In assay [1] the test system is rat nasal septal epithelium. Kind of assay: fMLP-induced degranulation and regranulation of goblet cells in rat nasal epithelium. In kind it is in vivo. As for the experimental part: Nasal Tissue Preparation. At various times after inhalation, rats were anesthetized with pentobarbital sodium (65 mg/kg, i.p.). The heart of the animal was exposed, a blunt-ended needle was inserted from the apex of the left ventricle into the ascending aorta, and the systemic circulation was perfused with 1% paraformaldehyde. An incision in the right atrium provided an outlet for the fixative. The eyes, lower jaws, skin, and musculature were removed, and the head was immersed in a large volume of the same fixative for 24 h. […]
Counting of Neutrophils in Nasal Epithelium. Neutrophils were counted in high power fields of the epithelial layer stained with 3,3′-diaminobenzidine at magnification ×400. The number of neutrophils within the nasal sepal epithelium (from the basement membrane to cell apices) was determined by counting the number of nuclear profiles per unit of basal lamina length.
Quantification of Goblet Cell Degranulation and Regranulation. To assess goblet cell degranulation and regranulation, we measured the volume density of Alcian blue/PAS-stained mucosubstances on the mucosal surface epithelium using a semiautomatic imaging system according to a previously published method. […] Images of the nasal epithelium were recorded in high power fields with a phase contrast lens at x400, using an IMAXX Video System (PDI, Redmond, Wash.). […]

The next assay deals with pathogen-free rats. Nature of the assay: IL-13-induced goblet cell metaplasia in rat airways. In kind it is in vivo. As for the experimental part:
Animals were anesthetized with pentobarbital [Nembutal sodium, 50 mg/kg, intraperitoneally (ip), Abbott Laboratories, North Chicago, Ill.] and allowed to breathe spontaneously. Vehicle (phosphate buffer solution, PBS) or IL-13 was instilled intratracheally via a 20-gauge Angiocath catheter (Beckton Dickinson, Sandy, Utah) through the mouth, while the laryngeal area was visualized using a high-intensity illuminator (FiberLite; Dolan Jenner Industries, Inc., Lawrence, Mass.). The […] tissues were examined 48 hours after instillation of IL-13. Various concentrations of IL-13 (recombinant murine IL-13; 5, 50, 100, and 500 ng/rat, R&D systems, Minneapolis, Minn.) were instilled into the trachea in […]. Sterile PBS (200 μl) was instilled into the trachea as controls. For examination of the relationship between IL-13-induced GC metaplasia and activation of EGFR, animals were pretreated 1 d before instillation of IL-13 and daily thereafter with a selective EGFR tyrosine kinase inhibitor (BIBX 1522; 1-30 mg/kg/day, ip; Boehringer Ingelheim, Ingelheim, Germany). Animals were euthanized 48 hours after instillation of IL-13. In preliminary studies, we noted that IL-13 causes leukocyte recruitment into the airways. We hypothesized that leukocyte recruitment results from IL-13-induced chemoattractant release from epithelium, and that this recruitment is involved in the IL-13-induced EGFR cascade leading to GC metaplasia. Groups of animals were euthanized 4, 8, 16, 24, and 48 hours after instillation of IL-13 (500 ng), and leukocytes were counted in airway tissue. […] Sigma chemical Co., St Louis, Mo.] or with a blocking antibody to interleukin-8 (IL-BAb; rabbit anti-human IL-8 antibody; Biosource, Camarillo, Calif.). […] In another series of studies, we instilled IL-8 Ab (10 μg/rat) intratracheally, along with IL-13; we repeated the instillation of anti-human IL-8 blocking antibody at 12 hour intervals until the animals were euthanized. Animals were euthanized with a lethal dose of pentobarbital (Nembutal sodium, 200 mg/kg, ip, Abbott Laboratories, North Chicago, Ill.), and the systemic circulation was perfused with 1% paraformaldehyde in Diethylpyrocarbonate (DEPC, Sigma chemical Co., St Louis, Mo.)-treated PBS via the left ventricle. For frozen sections, […] tissues were removed, placed in 4% paraformaldehyde overnight, and then placed in 30% sucrose for cryoprotection. The tissues were embedded in optimal cutting temperature (OCT, […]., Inc., Torrance, Calif.) compound. For plastic or paraffin sections, tissues were placed in 4% paraformaldehyde overnight, dehydrated with ethanol, and embedded in JB-4 plus monomer solution A (Polysclences, Inc., Warrington, Pa.) or in paraffin. The embedded tissues were cut as cross sections 4 μm thick and placed on glass slides. In all studies, the carina was examined to obtain consistent sampling. We measured AB/PAS-positive areas and total epithelial area, and we expressed the results as the percentage of AB/PAS area to total epithelial area. The analysis was performed with the public domain NIH IMAGE program (developed at the U.S. National Institutes of Health and available by anonymous FTP from zippy.nimh.gov. or floppy disk from the National Technical Information Service, Springfield, Va., part number PB95-500195GEI). […] For immunohistochemical localization of […], we used mouse anti-human IL-8 antibody (1:20; Biosource, Camarillo, Calif.). The sections were then incubated with biotinylated horse anti-mouse IgG (Vector Laboratories, Burlingame, Calif.) at 1:200 dilution for 1 hour at room temperature. Bound antibody was visualized according to standard protocols for avidin-biotin-peroxidase complex method. The measurement of MUC5AC protein also utilized the same method used for quantitative measurement of GC metaplasia in the epithelium. Animals were euthanized 4, 8, 16, 24, and 48 hours after instillation of IL-13 (500 ng), and leukocytes were counted in airway tissue. […]

The next assay deals with human neutrophils. Kind of assay: Chemotaxis of human neutrophils (microchemotaxis chamber). In kind it is cell-based. The settings on record: 10^-10, 10^-9, 5×10^-9 M. As for the experimental part:
Human neutrophils were purified from peripheral blood obtained from healthy donors. Neutrophil isolation was performed by standard techniques of Ficoll-Hypaque gradient separation, dextran sedimentation, and hypotonic lysis of erythrocytes. Cells were routinely >95% viable by trypan blue dye exclusion. To prevent endotoxin contamination, all solutions were passed through a […]. Chemotactic activity was assessed in 48-well microchemotaxis chamber (Neuroprobe, Cabin John, Md.), utilizing the leading front technique. Migration was measured as net movement of neutrophils ([…]) through a nitrocellulose filter (pore size, 3 μm) after 25 min at 37° C. The effect of IL-13 (10^−10, 10^−9, and 5×10^−9 M; recombinant human IL-13, R&D systems, Minneapolis, Minn.) is expressed as the distance traveled, compared to the random migration of neutrophils incubated with RPMI 1640.

The mark [2] stands for this setting: IL-13 5, 50, 100, 500 ng/rat intratracheal, 48 hours, dose-dependently.

For `CSCC[C@H](NC=O)C(=O)N[C@@H](CC(C)C)C(=O)N[C@@H](Cc1ccccc1)C(=O)O` [fMLP, N-formyl-methionyl-leucyl-phenylalanine], in the assay on NCI-H292 cells, the “MUC5AC synthesis, stimulus alone without neutrophils” value was “no effect”. Besides, the “area of MUC5AC-positive immunostaining” value in assay [1] (4 h after fMLP aerosol (10^-7 M)) is “markedly decreased”. Besides, in assay [1] (4 h after fMLP aerosol (10^-7 M) intranasally for 5 min), the “AB/PAS-stained area of nasal epithelium” value was “markedly decreased”.

B1: IL-13: recombinant murine IL-13 in rats; recombinant human IL-13 in chemotaxis (R&D systems) (protein, UniProt P20109 19-131, looked up)
Interleukin-13: APGPVPRSVSLPLTLKELIEELSNITQDQTPLCNGSMVWSVDLAAGGFCVALDSLTNISNCNAIYRTQRILHGLCNRKAPTTVSSLPDTKIEVAHFITKLLSYTKQLFRHGPF
Regarding B1, in the assay with pathogen-free rats (IL-13 500 ng), the “leukocyte recruitment into airway epithelium” value is listed as “time-dependent leukocyte recruitment”, the “start of leukocyte recruitment” value is recorded as “approximately 8 hours” and the “time of maximal leukocyte recruitment” value is not above 24 h. In addition, in the assay on pathogen-free rats (setting [2]), the “AB/PAS staining in rat airway epithelium” value was “increased” and the “MUC5AC staining in rat airway epithelium” value is “increased”. Also, in the assay on pathogen-free rats (instillation of IL-13), the “EGFR expression in airway epithelium” value is listed as “increased” and the “staining of airway epithelium with anti-human IL-8 antibody (IL-8-like chemoattractant)” value is given as “positive staining”. For the same molecule, the “TNFα expression in rat airway tissue” value with pathogen-free rats (instillation of IL-13, mainly in infiltrating neutrophils) is given as “induced”. The neutrophil movement entry with human neutrophils is on record as “decreased neutrophil movement dose-dependently”.

Values taken from US7531500B2, “Preventing airway mucus production by administration of EGF-R antagonists” (The Regents of the University of California, priority 1998, dated 2009).
